From paper PMC3761943 (Cell, 2013)

T1: kinesin-4ΔN (human kinesin-4, aa 733-1232) (human, UniProt O95239 733-1232)
T1 sequence (looked up): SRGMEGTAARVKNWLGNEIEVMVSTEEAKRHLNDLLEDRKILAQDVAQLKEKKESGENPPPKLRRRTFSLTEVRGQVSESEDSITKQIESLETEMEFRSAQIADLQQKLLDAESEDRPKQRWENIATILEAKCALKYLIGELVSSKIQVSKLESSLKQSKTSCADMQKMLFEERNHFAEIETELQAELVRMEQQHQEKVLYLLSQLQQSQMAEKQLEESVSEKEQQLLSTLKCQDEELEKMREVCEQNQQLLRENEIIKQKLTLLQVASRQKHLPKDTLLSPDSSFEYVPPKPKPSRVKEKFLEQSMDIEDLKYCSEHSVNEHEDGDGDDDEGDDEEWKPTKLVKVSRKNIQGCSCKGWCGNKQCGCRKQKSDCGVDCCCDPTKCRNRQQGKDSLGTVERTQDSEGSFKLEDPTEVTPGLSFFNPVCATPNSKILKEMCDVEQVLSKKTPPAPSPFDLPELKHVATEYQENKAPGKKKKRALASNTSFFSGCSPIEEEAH


Target: T1, kinesin-4ΔN (human kinesin-4, aa …)
Experiment: pull-down

| Kd [nM] | Binder |
| --- | --- |
| 300 ± 30 | PRC1NSΔC (human PRC1, aa 1-486) (domain or fragment, UniProt O43663 1-486, looked up) MRRSEVLAEESIVCLQKALNHLREIWELIGIPEDQRLQRTEVVKKHIKELLDMMIAEEESLKERLIKSISVCQKELNTLCSELHVEPFQEEGETTILQLEKDLRTQVELMRKQKKERKQELKLLQEQDQELCEILCMPHYDIDSASVPSLEELNQFRQHVTTLRETKASRREEFVSIKRQIILCMEALDHTPDTSFERDVVCEDEDAFCLSLENIATLQKLLRQLEMQKSQNEAVCEGLRTQIRELWDRLQIPEEEREAVATIMSGSKAKVRKALQLEVDRLEELKMQNMKKVIEAIRVELVQYWDQCFYSQEQRQAFAPFCAEDYTESLLQLHDAEIVRLKNYYEVHKELFEGVQKWEETWRLFLEFERKASDPNRFTNRGGNLLKEEKQRAKLQKMLPKLEEELKARIELWEQEHSKAFMVNGQKFMEYVAEQWEMHRLEKERAKQERQLKNKKQTETEMLYGSAPRTPSKRRGLAPNTPGKAR |
| 1200 ± 400 | PRC1NSΔC3 (human PRC1, aa 1-168) (domain or fragment, UniProt O43663 1-168, looked up) MRRSEVLAEESIVCLQKALNHLREIWELIGIPEDQRLQRTEVVKKHIKELLDMMIAEEESLKERLIKSISVCQKELNTLCSELHVEPFQEEGETTILQLEKDLRTQVELMRKQKKERKQELKLLQEQDQELCEILCMPHYDIDSASVPSLEELNQFRQHVTTLRETKA |
| 300 ± 40 | PRC1NSΔC4 (human PRC1, aa 1-231) (domain or fragment, UniProt O43663 1-231, looked up) MRRSEVLAEESIVCLQKALNHLREIWELIGIPEDQRLQRTEVVKKHIKELLDMMIAEEESLKERLIKSISVCQKELNTLCSELHVEPFQEEGETTILQLEKDLRTQVELMRKQKKERKQELKLLQEQDQELCEILCMPHYDIDSASVPSLEELNQFRQHVTTLRETKASRREEFVSIKRQIILCMEALDHTPDTSFERDVVCEDEDAFCLSLENIATLQKLLRQLEMQKSQ |
| 1600 ± 110 | PRC1ΔN2SΔC (human PRC1, aa 41-486) (domain or fragment, UniProt O43663 41-486, looked up) EVVKKHIKELLDMMIAEEESLKERLIKSISVCQKELNTLCSELHVEPFQEEGETTILQLEKDLRTQVELMRKQKKERKQELKLLQEQDQELCEILCMPHYDIDSASVPSLEELNQFRQHVTTLRETKASRREEFVSIKRQIILCMEALDHTPDTSFERDVVCEDEDAFCLSLENIATLQKLLRQLEMQKSQNEAVCEGLRTQIRELWDRLQIPEEEREAVATIMSGSKAKVRKALQLEVDRLEELKMQNMKKVIEAIRVELVQYWDQCFYSQEQRQAFAPFCAEDYTESLLQLHDAEIVRLKNYYEVHKELFEGVQKWEETWRLFLEFERKASDPNRFTNRGGNLLKEEKQRAKLQKMLPKLEEELKARIELWEQEHSKAFMVNGQKFMEYVAEQWEMHRLEKERAKQERQLKNKKQTETEMLYGSAPRTPSKRRGLAPNTPGKAR |
